Here are results for one molecule from publication PMC8322077, “Antibody toolkit reveals N-terminally ubiquitinated substrates of UBE2W” (Nature Communications, 2021).

For this assay, the target named is T1, biotinylated ubiquitin (UniProt P0CG48 1-76, biotin).
T1 construct: ubiquitin (monoubiquitin); also called biotin-Ub; monoubiquitin; source: bought: Boston Biochem (Cat# UB-570)
In words: BLI; Octet Red384; biotinylated ubiquitin immobilised on streptavidin biosensors; analyte fourfold dilutions starting at 5 μM; 25 °C; 150 mM NaCl, 20 mM Tris 7.5, 1 mg/mL BSA, 0.01% Tween-20, 1 mM TCEP; association 180 s, dissociation 300 s. The note with it: both partners purified. (In general: BLI is a label-free optical method that tracks binding on a fibre tip over time.)

B1: UCHL5^WT (enzyme, UniProt Q9Y5K5 1-329, looked up)
chain: MTGNAGEWCLMESDPGVFTELIKGFGCRGAQVEEIWSLEPENFEKLKPVHGLIFLFKWQPGEEPAGSVVQDSRLDTIFFAKQVINNACATQAIVSVLLNCTHQDVHLGETLSEFKEFSQSFDAAMKGLALSNSDVIRQVHNSFARQQMFEFDTKTSAKEEDAFHFVSYVPVNGRLYELDGLREGPIDLGACNQDDWISAVRPVIEKRIQKYSEGEIRFNLMAIVSDRKMIYEQKIAELQRQLAEEEPMDTDQGNSMLSAIQSEVAKNQMLIEEEVQKLKRYKIENIRRKHNYLPFIMELLKTLAEHQQLIPLVEKAKEKQNAKKAQETK
notes: ubiquitin C-terminal hydrolase L5 (UCHL5), full-length wild type; also called UCH37; source: E. coli BL21-Gold(DE3), purified (Ni-NTA, SEC)
Regarding B1, the binding result is “binds”.
